In PMC12835413, “Allosteric zinc inhibition and interdomain regulation govern the catalytic mechanism of the E3-independent ubiquitin-conjugating enzyme hUBE2O” (The Journal of Biological Chemistry, 2025):

Target: the molecule itself
Assay: SEC-MALS; 100 ul of 2 mg/ml purified Flag-UBE2O-TwinStrep on Superdex 200 Increase 5/150 GL; 50 mM Tris-HCl pH 7.4, 200 mM NaCl, 0.5 mM TCEP

B1: Flag-UBE2O-TwinStrep (purified recombinant Homo sapiens UBE2O) (enzyme, human, UniProt Q9C0C9 1-1292, looked up)
chain: MADPAAPTPAAPAPAQAPAPAPEAVPAPAAAPVPAPAPASDSASGPSSDSGPEAGSQRLLFSHDLVSGRYRGSVHFGLVRLIHGEDSDSEGEEEGRGSSGCSEAGGAGHEEGRASPLRRGYVRVQWYPEGVKQHVKETKLKLEDRSVVPRDVVRHMRSTDSQCGTVIDVNIDCAVKLIGTNCIIYPVNSKDLQHIWPFMYGDYIAYDCWLGKVYDLKNQIILKLSNGARCSMNTEDGAKLYDVCPHVSDSGLFFDDSYGFYPGQVLIGPAKIFSSVQWLSGVKPVLSTKSKFRVVVEEVQVVELKVTWITKSFCPGGTDSVSPPPSVITQENLGRVKRLGCFDHAQRQLGERCLYVFPAKVEPAKIAWECPEKNCAQGEGSMAKKVKRLLKKQVVRIMSCSPDTQCSRDHSMEDPDKKGESKTKSEAESASPEETPDGSASPVEMQDEGAEEPHEAGEQLPPFLLKEGRDDRLHSAEQDADDEAADDTDDTSSVTSSASSTTSSQSGSGTSRKKSIPLSIKNLKRKHKRKKNKITRDFKPGDRVAVEVVTTMTSADVMWQDGSVECNIRSNDLFPVHHLDNNEFCPGDFVVDKRVQSCPDPAVYGVVQSGDHIGRTCMVKWFKLRPSGDDVELIGEEEDVSVYDIADHPDFRFRTTDIVIRIGNTEDGAPHKEDEPSVGQVARVDVSSKVEVVWADNSKTIILPQHLYNIESEIEESDYDSVEGSTSGASSDEWEDDSDSWETDNGLVEDEHPKIEEPPIPPLEQPVAPEDKGVVISEEAATAAVQGAVAMAAPMAGLMEKAGKDGPPKSFRELKEAIKILESLKNMTVEQLLTGSPTSPTVEPEKPTREKKFLDDIKKLQENLKKTLDNVAIVEEEKMEAVPDVERKEDKPEGQSPVKAEWPSETPVLCQQCGGKPGVTFTSAKGEVFSVLEFAPSNHSFKKIEFQPPEAKKFFSTVRKEMALLATSLPEGIMVKTFEDRMDLFSALIKGPTRTPYEDGLYLFDIQLPNIYPAVPPHFCYLSQCSGRLNPNLYDNGKVCVSLLGTWIGKGTERWTSKSSLLQVLISIQGLILVNEPYYNEAGFDSDRGLQEGYENSRCYNEMALIRVVQSMTQLVRRPPEVFEQEIRQHFSTGGWRLVNRIESWLETHALLEKAQALPNGVPKASSSPEPPAVAELSDSGQQEPEDGGPAPGEASQGSDSEGGAQGLASASRDHTDQTSETAPDASVPPSVKPKKRRKSYRSFLPEKSGYPDIGFPLFPLSKGFIKSIRGVLTQFRAALLEAGMPECTEDK
notes: Homo sapiens UBE2O (ubiquitin-conjugating enzyme E2O), UniProt Q9C0C9, from plasmid pLV-Flag-hUBE2O-TS; also called hUBE2O; Flag-hUBE2O-TwinStrep; source: Expi293F cells, purified; not shown: Flag, N-terminal, kept
Question: With B1 as the protein, how does the “stoichiometry N” value read?
Answer: 2
